Test results reported in patent US6428997B1, “Aminopeptidase derived from Bacillus licheniformis and process for preparation of natural type proteins” (LG Chemical Ltd., priority 1997, dated 2002).

Legend:
[1] = substrate: CC(C)C[C@H](N)C(=O)Nc1ccc([N+](=O)[O-])cc1; experiment: Kinetic parameters of Bacillus licheniformis aminopeptidase (Lineweaver-Burk); assay type: biochemical; details: other: Tris-Cl pH 8.0, 37° C., 0.5 U enzyme, absorbance at 405 nm, Lineweaver-Burk plot
Procedure: (§1) Aminopeptidase activities of this invention were measured by the method of Pfleiderer (Pfleiderer, Meth. Enzymol., 19, 514-521, 1970). Precisely, 1 U of enzyme activity defines the enzyme quantity changing 1 absorbance at 405 nm which is measured by the process adding aminopeptidase in 1 ml solution of […] Tris-Cl (pH 8.0) and 2 mM leucine-p-nitroanilide (Sigma, USA), incubating at 37° C. for 1 min, then adding 100 μl of 70% acetic acid to stop the reaction. At that time leucine-p-nitroanilide was dissolved in dimethylsulfoxide (DMSO) to make 100 mM solution.
(§2) In order to compare substrate specificity of aminopeptidase of this invention, 2 kinds of substrate were used. In detail, one was synthetic substrates of p-nitroanilide derivative and purchased from Sigma, USA and the other was oligopeptide such as methionyl oligopeptide of SEQ. ID. NO: 1 which have amino acid sequence similar to N-terminus of methionyl HGH and leucyl oligopeptide of SEQ. ID. NO: 2. The oligopeptides of this invention were synthesized.
(§3) Enzyme reaction of aminopeptidase was performed by the process described in Reference Examples. At that time p-nitroanilide derivative was used as synthetic substrate. Leucine p-nitroanilide was used as substrate to perform the reaction in concentration of 0.03125, 0.0625, 0.125, 0.25, 0.5, 1 mM and methionine p-nitroanilide in 0.125, 0.25, 0.5, 1 mM and aminopeptidase in 0.5 U respectively. Above reactions using leucine-p-nitroanilide proceeded for 2 min and methionine-p-nitroanilide for 40 min. Then 70% acetic acid was added to stop the reactions and absorbance at 405 nm was measured. The product concentration was measured by adopting absorbance constant ε405=9450M^−1 cm^−1.
(§4) In reaction condition mentioned above, initial velocity of enzyme reaction was measured with varying the substrate concentration. Lineweaver-Burk plot was used to determine Km value and Maximum reaction velocity of aminopeptidase from Bacillus licheniformis. In addition kcat and kcat/Km was determined by using Km value and maximum reaction velocity described above.

[2] = substrate: CSCC[C@H](N)C(=O)Nc1ccc([N+](=O)[O-])cc1; experiment: as above; assay type: biochemical; details: other: Tris-Cl pH 8.0, 37° C., 0.5 U enzyme, absorbance at 405 nm, Lineweaver-Burk plot
Procedure: as §1, §2, §3, §4

B1: Bacillus licheniformis aminopeptidase (Bacillus licheniformis DSM 13 = ATCC 14580) (protein)
chain: KFSKKFNENRAYQTIYHLSETIGPRVTGTAEEKKSAAFIASQMKKSNLKVSTQKFSIPDRLEGTLTVQGNNVPARPAAGSAPTAAEGLAAPLYDAGLGLPGDFTEEAKGKIAVILRGELTFYEKAKNAADAGASGVIIYNNVDSLVPLTPNLSGNKVDIPVVGVKKEDGEKLLSEQEAILKLKAHKNQTSQNVIGVRKAKGVKNPDIVYVTSHYDSVPYAPGANDNASGTSVVLELARILKTVPADKEIRFITFGAEEIGLLGSRHYVSTLSNQEVKRSVANFNLDMVATSWENASQLYINTPDGSANLVWQLSKAASLSLGKDVLFLHQGGSSDHVPFHEAGIDSANFIWREPGTGALEPWYHTPYDTIEHISKDRLKTAGQIAGTAVYNFTKKENRKPSYSSVAQ
- Km [1]: 739 µM
- kcat [1]: 130 s⁻¹
- kcat/Km [1]: 176000 M⁻¹ s⁻¹
- Km [2]: 1004 µM
- kcat [2]: 2.59 s⁻¹
- kcat/Km [2]: 2580 M⁻¹ s⁻¹
